Our source for the Km values is patent publication US6528275B1, “Substrates and inhibitors of proteolytic enzymes” (Peptide Therapeutics Limited, priority 1996, dated 2003).

Holding throughout (assay): Der pI substrate assay with FRET peptides (fluorescence, Km, kcat/Km)
What all share (type): biochemical, house dust mite
Common to all, as to conditions: other: purified Der pI; peptides SEQ ID Nos. 1-76; pH 8.25

Substrate in data set [1]: CCCC[C@H](NC(=O)[C@H](C)NC(=O)[C@@H](NC(=O)[C@H](Cc1ccc(-c2ccccc2)cc1)NC(=O)c1ccccc1N)C(C)C)C(=O)N[C@@H](CO)C(=O)N[C@@H](Cc1ccc(O)c([N+](=O)[O-])c1)C(=O)N[C@@H](CC(=O)O)C(N)=O
As for the experimental part:
(§1) Using the general techniques described above, the following compounds were prepared and assayed as potential substrates against Der pI purified as described above.
(§2) Each mixture of 20 compounds in the libraries of the apparatus described herein was screened at a concentration of 1.0 μM per compound in an assay against the cysteinyl protease Der pI.
(§3) Plate assays were carried out in 96 well plate format, using 0.1 ug of Der pI per 100 μL assay volume in each well and using 20 μM of the substrate. All assays were performed in Assay Buffer (AB; 50 mM potassium phosphate, pH 8.25 containing 1 mM ethylenediaminetetraacetic acid (EDTA) and 1 mM dithiothreitol (DTT). The Der pI enzyme is pre-activated by addition of DTT and this in incubated at room temperature for 5 min. prior to initiation of the assay. As an example for the screening methodology, each well contains a 5 μL of a 20 μM solution of the test compound in DMSO, 10 μL of a 200 μM aqueous solution of the substrate, 2, and 85 μL of Der pI in AB is added to initiate the reaction. Enzyme activity is monitored by fluorescence using 320 nm for excitation and 420 nm for the emission wavelengths using a Labsystems Fluroskan Ascent machine. Kinetic measurements were carried out using a Hitachi F-4500 Fluorescence Spectrophotometer.

Substrate in data set [2]: CC(C)CC[C@H](NC(=O)[C@H](C)NC(=O)[C@H](Cc1ccc(-c2ccccc2)cc1)NC(=O)c1ccccc1N)C(=O)N[C@H](C(=O)N[C@@H](Cc1ccc(O)c([N+](=O)[O-])c1)C(=O)N[C@@H](CC(=O)O)C(N)=O)[C@@H](C)O
As for the experimental part:
as §1, §2, §3

Substrate in data set [3]: CC(C)CC[C@H](NC(=O)[C@H](C)NC(=O)[C@H](CC[S+](C)[O-])NC(=O)c1ccccc1N)C(=O)N[C@@H](CO)C(=O)N[C@@H](Cc1ccc(O)c([N+](=O)[O-])c1)C(=O)N[C@@H](CC(=O)O)C(N)=O
As for the experimental part: as §1, §2, §3

Substrate in data set [4]: CC(C)CC[C@H](NC(=O)[C@H](C)NC(=O)[C@H](Cc1ccc2ccccc2c1)NC(=O)c1ccccc1N)C(=O)N[C@@H](CO)C(=O)N[C@@H](Cc1ccc(O)c([N+](=O)[O-])c1)C(=O)N[C@@H](CC(=O)O)C(N)=O
As for the experimental part: as §1, §2, §3

B1: Der pI (Dermatophagoides pteronyssinus) (protein)
chain: TNACSINGNAPAEIDLRQMRTVTPIRMQGGCGSCWAFSGVAATESAYLAYRNQSLDLAEQELVDCASQHGCHGDTIPRGIEYIQHNGVVQESYYRYVAREQSCRRPNAQRFGISNYCQIYPPNVNKIREALAQTHSAIAVIIGIKDLDAFRHYDGRTIIQRDNGYQPNYHAVNIVGYSNAQGVDYWIVRNSWDTNWGDNGYGYFAANIDLMMIEEYPYVVIL
notes: tissue SmithKline-Beecham, U.K (crude mite extract); host or cells: crude house dust mite extract
Take B1: the Km in data set [1] amounted to 10 µM; in data set [2], 2.5 µM; in data set [3] it was 20 µM; in data set [4], 15 µM.
